EP4711384A1 (WIO Bioscience Co., Ltd., dated 2026)

T1: human IL-18R1 and IL-18RAP on IL-18 Reporter HEK 293 Cells (human, UniProt Q13478 19-541; O95256 20-599)
T1 sequence (looked up) 1: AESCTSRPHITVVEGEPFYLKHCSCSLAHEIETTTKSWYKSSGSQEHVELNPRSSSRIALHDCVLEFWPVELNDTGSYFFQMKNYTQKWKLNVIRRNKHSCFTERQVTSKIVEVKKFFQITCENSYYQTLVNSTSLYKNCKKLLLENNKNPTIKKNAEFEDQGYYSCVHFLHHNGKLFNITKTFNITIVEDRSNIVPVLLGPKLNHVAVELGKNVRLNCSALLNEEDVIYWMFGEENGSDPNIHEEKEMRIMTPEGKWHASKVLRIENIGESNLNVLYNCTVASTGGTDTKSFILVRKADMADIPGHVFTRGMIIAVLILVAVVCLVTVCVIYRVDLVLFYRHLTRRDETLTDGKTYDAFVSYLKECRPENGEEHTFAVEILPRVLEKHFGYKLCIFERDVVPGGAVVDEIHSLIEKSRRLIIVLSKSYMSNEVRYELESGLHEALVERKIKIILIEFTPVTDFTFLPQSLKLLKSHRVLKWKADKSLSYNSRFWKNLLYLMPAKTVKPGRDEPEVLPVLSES
T1 sequence (looked up) 2: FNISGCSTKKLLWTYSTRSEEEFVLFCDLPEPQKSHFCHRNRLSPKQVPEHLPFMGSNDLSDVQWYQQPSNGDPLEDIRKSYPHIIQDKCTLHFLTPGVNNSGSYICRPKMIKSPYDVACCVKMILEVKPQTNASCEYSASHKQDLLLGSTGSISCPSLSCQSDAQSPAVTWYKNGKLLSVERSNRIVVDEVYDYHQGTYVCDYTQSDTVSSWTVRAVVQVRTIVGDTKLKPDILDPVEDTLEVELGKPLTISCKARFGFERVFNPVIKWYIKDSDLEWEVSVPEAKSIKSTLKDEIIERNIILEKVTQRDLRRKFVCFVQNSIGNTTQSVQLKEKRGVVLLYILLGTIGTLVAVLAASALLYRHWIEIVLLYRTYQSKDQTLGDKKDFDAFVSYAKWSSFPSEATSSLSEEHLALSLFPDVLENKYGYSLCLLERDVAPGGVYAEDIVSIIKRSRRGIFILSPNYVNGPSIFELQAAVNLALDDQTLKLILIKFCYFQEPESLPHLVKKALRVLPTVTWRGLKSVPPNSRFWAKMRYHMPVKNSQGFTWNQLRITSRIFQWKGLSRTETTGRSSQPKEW


target: T1, human IL-18R1 and IL-18RAP on IL-18 …; assay: cell-based or functional assay

Row | Binder | EC50 | Top630nm
1 | hzWio-02-01-His (bispecific antibody) EVQLVESGGGLVQPGGSLRLSCAASGTAYDNACMGWFRQAPGKEREGVASIHLRDRTYYADSVKGRFTISRDNSKNTLYLQMNSLRAEDTAVYYCASSNICNALNLQGNTYWGQGTLVTVSSGGGGSEVQLLESGGGLVQPGGSLRLSCAASGYTYGPYCMGWFRQAPGKEREGVAAVGGDARTWYGNSVKGRFTISRDNSKNTLYLQMNSLRAEDTAVYYCAADFDRTVCSDDIYDYTYRGQGTLVTVSSHHHHHH | 0.417 ng/mL | 1.93
2 | hzWio-02-03-His (bispecific antibody) EVQLVESGGGLVQPGGSLRLSCAASGNLYRDPCMGWFRQAPGKDREGVAAMNTGADSTFYARSVKGRFTISRDNAKNTLYLQMNSLRAEDTAVYYCAASRYCTERTYTWRYDYDYWGQGTLVTVSSGGGGSEVQLVESGGGLVQPGGSLRLSCAASGFTYIPAYMGWFRQAPGKERERVASIKTDASTTYADSVEGRFTISQDNAKNTLYLQMNSLRPEDTAVYYCAAYQFGAFRVWGQGTLVTVSSHHHHHH | 0.394 ng/mL | 1.82
3 | hzWio-02-05-His (bispecific antibody) EVQLVESGGGLVQPGGSLRLSCAASGNLYRDPCMGWFRQAPGKDREGVAAMNTGADSTFYARSVKGRFTISRDNAKNTLYLQMNSLRAEDTAVYYCAASRYCTERTYTWRYDYDYWGQGTLVTVSSGGGGSEVQLVESGGGLVQPGGSLRLSCAASGFTYIPAYMGWFRQAPGKERERVASISSTEGSTTYADSVKGRFTISQDNSKNTLYLQMNSLRPEDTAVYYCAAYQFGAFRVWGQGTLVTVSSHHHHHH | 0.201 ng/mL | 1.72
4 | hzWio-02-09 (His form) (bispecific antibody) EVQLVESGGGLVQPGGSLRLSCAASGSTFDEYDMGWYRQAPGGKCELVSTISTIDASTYYADSVKGRFTISRDNSKNTLYLQMNSLRAEDTAVYYCEADDRGTWDRGGCWGQGTLVTVSSGGGGSEVQLVESGGGLVQPGGSLRLSCAASGFTYIPAYMGWFRQAPGKERERVASIKTDASTTYADSVEGRFTISQDNAKNTLYLQMNSLRPEDTAVYYCAAYQFGAFRVWGQGTLVTVSSHHHHHH | 0.668 ng/mL | 1.88
5 | hzWio-02-11-His (bispecific antibody) EVQLVESGGGLVQPGGSLRLSCAASGSTFDEYDMGWYRQAPGGKCELVSTISTIDASTYYADSVKGRFTISRDNSKNTLYLQMNSLRAEDTAVYYCEADDRGTWDRGGCWGQGTLVTVSSGGGGSEVQLVESGGGLVQPGGSLRLSCAASGFTYIPAYMGWFRQAPGKERERVASISSTEGSTTYADSVKGRFTISQDNSKNTLYLQMNSLRPEDTAVYYCAAYQFGAFRVWGQGTLVTVSSHHHHHH | 0.101 ng/mL | 1.58
6 | hzWio-02-23-His (bispecific antibody) EVQLVESGGGLVQPGGSLRLSCAASGFTVHDMGWYRQAPGKECELVSTISSDASTYYADSVKGRFTISRDNAKNTLYLQMNSLRAEDTAVYYCAADSFTGLQLAECKADFGYWGQGTLVTVSSGGGGSEVQLVESGGGLVQPGGSLRLSCAASGFTYIPAYMGWFRQAPGKERERVASISSTEGSTTYADSVKGRFTISQDNSKNTLYLQMNSLRPEDTAVYYCAAYQFGAFRVWGQGTLVTVSSHHHHHH | 0.13 ng/mL | 1.95
7 | hzWio-02-29 (His form) (bispecific antibody) EVQLLESGGGLVQPGGSLRLSCAASGYTYGPYCMGWFRQAPGKEREGVAAVGGDARTWYGNSVKGRFTISRDNSKNTLYLQMNSLRAEDTAVYYCAADFDRTVCSDDIYDYTYRGQGTLVTVSSGGGGSEVQLVESGGGLVQPGGSLRLSCAASGTAYDNACMGWFRQAPGKEREGVASIHLRDRTYYADSVKGRFTISRDNSKNTLYLQMNSLRAEDTAVYYCASSNICNALNLQGNTYWGQGTLVTVSSHHHHHH | 0.503 ng/mL | 1.61
8 | hzWio-02-30 (His form) (bispecific antibody) EVQLVESGGGLVQPGGSLRLSCAASGFTYIPAYMGWFRQAPGKERERVASISSTEGSTTYADSVKGRFTISQDNSKNTLYLQMNSLRPEDTAVYYCAAYQFGAFRVWGQGTLVTVSSGGGGSEVQLVESGGGLVQPGGSLRLSCAASGSTFDEYDMGWYRQAPGGKCELVSTISTIDASTYYADSVKGRFTISRDNSKNTLYLQMNSLRAEDTAVYYCEADDRGTWDRGGCWGQGTLVTVSSHHHHHH | 2.74 ng/mL | 0.837
9 | hzWio-02-31 (His form) (bispecific antibody) EVQLVESGGGLVQPGGSLRLSCAASGFTYIPAYMGWFRQAPGKERERVASISSTEGSTTYADSVKGRFTISQDNSKNTLYLQMNSLRPEDTAVYYCAAYQFGAFRVWGQGTLVTVSSGGGGSEVQLVESGGGLVQPGGSLRLSCAASGFTVHDMGWYRQAPGKECELVSTISSDASTYYADSVKGRFTISRDNAKNTLYLQMNSLRAEDTAVYYCAADSFTGLQLAECKADFGYWGQGTLVTVSSHHHHHH | 2.58 ng/mL | 0.779
10 | hzWio-02-44 (His form) (bispecific antibody) EVQLLESGGGLVQPGGSLRLSCAASGYTYGPYCMGWFRQAPGKEREGVAAVGGDARTWYGNSVKGRFTISRDNSKNTLYLQMNSLRAEDTAVYYCAADFDRTVCSDDIYDYTYRGQGTLVTVSSGGGGSQVQLQESGGGSVQAGGSLRLSCVASGTTMSMNYMAWFRQAPGKEREGVASIFRSTHYADSVKGRFTIAEDSAKNTVYLQMNSLKPEDTAVYYCAAGRTKPYLTPLAESQYNYWGQGIQVTVSSHHHHHH | 2.66 ng/mL | 0.912

target: T1, human IL-18R1 and IL-18RAP on IL-18 …; assay: cell-based or functional assay; remark: another data set of the same source

Row | Binder | EC50 | Top530nm
11 | hzWio-02-01-His (bispecific antibody) EVQLVESGGGLVQPGGSLRLSCAASGTAYDNACMGWFRQAPGKEREGVASIHLRDRTYYADSVKGRFTISRDNSKNTLYLQMNSLRAEDTAVYYCASSNICNALNLQGNTYWGQGTLVTVSSGGGGSEVQLLESGGGLVQPGGSLRLSCAASGYTYGPYCMGWFRQAPGKEREGVAAVGGDARTWYGNSVKGRFTISRDNSKNTLYLQMNSLRAEDTAVYYCAADFDRTVCSDDIYDYTYRGQGTLVTVSSHHHHHH | 2.3 ng/mL | 1.05
12 | hzWio-02-01-Hm33 (bispecific antibody) EVQLVESGGGLVQPGGSLRLSCAASGTAYDNACMGWFRQAPGKEREGVASIHLRDRTYYADSVKGRFTISRDNSKNTLYLQMNSLRAEDTAVYYCASSNICNALNLQHNTYWGQGTLVTVSSGGGGSEVQLLESGGGLVQPGGSLRLSCAASGYTYGPYCMGWFRQAPGKEREGVAAVGGDARTWYGNSVKGRFTISRDNSKNTLYLQMNSLRAEDTAVYYCAADFDRTVCSDDIYDYTYRGQGTLVTVSSHHHHHH | 19.5 ng/mL | 1.1
13 | hzWio-02-01-Hm34 (bispecific antibody) EVQLVESGGGLVQPGGSLRLSCAASGTAYDNACMGWFRQAPGKEREGVASIHLRDRTYYADSVKGRFTISRDNSKNTLYLQMNSLRAEDTAVYYCASSNICNALNLQGHTYWGQGTLVTVSSGGGGSEVQLLESGGGLVQPGGSLRLSCAASGYTYGPYCMGWFRQAPGKEREGVAAVGGDARTWYGNSVKGRFTISRDNSKNTLYLQMNSLRAEDTAVYYCAADFDRTVCSDDIYDYTYRGQGTLVTVSSHHHHHH | 12.9 ng/mL | 1
14 | hzWio-02-01-Hm35 (bispecific antibody) EVQLVESGGGLVQPGGSLRLSCAASGTAYDNACMGWFRQAPGKEREGVASIHLRDRTYYADSVKGRFTISRDNSKNTLYLQMNSLRAEDTAVYYCASSNICNALNLQGNHYWGQGTLVTVSSGGGGSEVQLLESGGGLVQPGGSLRLSCAASGYTYGPYCMGWFRQAPGKEREGVAAVGGDARTWYGNSVKGRFTISRDNSKNTLYLQMNSLRAEDTAVYYCAADFDRTVCSDDIYDYTYRGQGTLVTVSSHHHHHH | 6.99 ng/mL | 1.18
